Tests used:
Experiment in all cases: cell-based or functional assay
[1] = target: HIV-1 Env of isolate MGRM-AG-009 (HIV-1)
[2] = target: HIV-1 MGRM-F1-016 Env (pseudovirus) (HIV-1)
[3] = target: HIV-1 Env of isolate MGRM-AG-012 (HIV-1)
[4] = target: HIV-1 92BR020 envelope glycoprotein (Env) on pseudovirus (HIV-1)
[5] = target: aMLV envelope (negative control pseudovirus)
[6] = target: HIV-1 Env of isolate MGRM-AG-006 (HIV-1)
[7] = target: HIV-1 Env of isolate MGRM-Chronic-B-024 (HIV-1)
[8] = target: HIV-1 Env of isolate MGRM-Chronic-B-017 (HIV-1)
[9] = target: HIV-1 Env of isolate MGRM-AG-001 (HIV-1)
[10] = target: HIV-1 Env of isolate MGRM-AG-002 (HIV-1)
[11] = target: HIV-1 Env of isolate MGRM-AE-008 (HIV-1)
[12] = target: HIV-1 Env of isolate MGRM-AG-003 (HIV-1)
[13] = target: HIV-1 92RW020 envelope glycoprotein (Env) on pseudovirus (HIV-1)
[14] = target: HIV-1 92TH021 envelope glycoprotein (Env) on pseudovirus (HIV-1)
[15] = target: HIV-1 NL43 envelope glycoprotein (Env) on pseudovirus (HIV-1)
[16] = target: HIV-1 Env of isolate MGRM-AE-004 (HIV-1)
[17] = target: HIV-1 MGRM-A-007 envelope glycoprotein (Env) (HIV-1)
[18] = target: HIV-1 Env of isolate MGRM-Chronic-B-020 (HIV-1)
[19] = target: HIV-1 Env of isolate MGRM-AE-005 (HIV-1)
[20] = target: HIV-1 Env of isolate MGRM-AE-006 (HIV-1)
[21] = target: HIV-1 Env of isolate MGRM-G-006 (HIV-1)
[22] = target: HIV-1 Env of isolate MGRM-Chronic-B-018 (HIV-1)
[23] = target: HIV-1 Env of isolate MGRM-AE-007 (HIV-1)
[24] = target: HIV-1 Env of isolate MGRM-Chronic-B-023 (HIV-1)
[25] = target: HIV-1 Env of isolate MGRM-G-004 (HIV-1)
[26] = target: HIV-1 92UG024 envelope glycoprotein (Env) on pseudovirus (HIV-1)
[27] = target: HIV-1 Env of isolate MGRM-AG-005 (HIV-1)
[28] = target: HIV-1 Env of isolate MGRM-Chronic-B-011 (HIV-1)
[29] = target: HIV-1 Env of isolate MGRM-AG-008 (HIV-1)
[30] = target: HIV-1 Env of isolate MGRM-G-009 (HIV-1)
[31] = target: HIV-1 Env of isolate MGRM-AG-013 (HIV-1)
[32] = target: HIV-1 Env of isolate MGRM-G-001 (HIV-1)
[33] = target: HIV-1 Env of isolate MGRM-Chronic-B-010 (HIV-1)
[34] = target: HIV-1 Env of isolate MGRM-Chronic-B-012 (HIV-1)
[35] = target: HIV-1 Env of isolate MGRM-AG-011 (HIV-1)
[36] = target: HIV-1 Env of isolate MGRM-G-028 (clade G pseudovirus) (HIV-1)
[37] = target: HIV-1 Env of isolate JRFL (HIV-1)
[38] = target: HIV-1 Env of isolate MGRM-G-017 (HIV-1)
[39] = target: HIV-1 Env of isolate MGRM-G-014 (HIV-1)
[40] = target: HIV-1 Env of isolate MGRM-G-013 (HIV-1)
[41] = target: HIV-1 Env of isolate MGRM-G-016 (HIV-1)
[42] = target: HIV-1 Env of isolate MGRM-G-011 (HIV-1)
[43] = target: HIV-1 Env of isolate 92BR020 (pseudovirus) (HIV-1 isolate 92BR020, subtype B)
[44] = target: HIV-1 Env of isolate MGRM-G-019 (HIV-1)
[45] = target: HIV-1 Env of isolate MGRM-G-027 (HIV-1)
[46] = target: HIV-1 Env of isolate MGRM-G-015 (HIV-1)

Sequence of 1443_C16 (PG16) (TCN-116) (antibody) (VH): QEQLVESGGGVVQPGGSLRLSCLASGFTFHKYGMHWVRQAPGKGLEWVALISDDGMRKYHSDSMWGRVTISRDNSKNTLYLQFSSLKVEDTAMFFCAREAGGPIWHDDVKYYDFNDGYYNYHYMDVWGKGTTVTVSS
Sequence of 1443_C16 (PG16) (TCN-116) (antibody) (VL): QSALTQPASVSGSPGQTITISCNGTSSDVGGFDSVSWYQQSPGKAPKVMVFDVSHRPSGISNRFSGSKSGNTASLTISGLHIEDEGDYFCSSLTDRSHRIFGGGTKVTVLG

1443_C16 (PG16) (TCN-116) (antibody)
IC50 (µg/ml), pseudovirus neutralization [1]: > 50 µg/mL | IC50 (µg/ml), pseudovirus neutralization [2]: 1.12 µg/mL | IC50 (µg/ml), pseudovirus neutralization [3]: 25.1 µg/mL | IC90 (pseudovirus neutralization) [4]: > 50 µg/mL | IC50 (µg/ml), pseudovirus neutralization [5]: > 50 µg/mL | IC50 (µg/ml), pseudovirus neutralization [6]: > 50 µg/mL | IC50 (µg/ml), pseudovirus neutralization [7]: 0.01 µg/mL | IC50 (µg/ml), pseudovirus neutralization [8]: 0.02 µg/mL | IC50 (µg/ml), pseudovirus neutralization [9]: 0.03 µg/mL | IC50 (µg/ml), pseudovirus neutralization [10]: 0.03 µg/mL | IC50 (µg/ml), pseudovirus neutralization [11]: 3.25 µg/mL | IC50 (µg/ml), pseudovirus neutralization [12]: > 50 µg/mL | IC90 (pseudovirus neutralization) [13]: > 50 µg/mL | IC90 (pseudovirus neutralization) [14]: 23.4 µg/mL | IC90 (pseudovirus neutralization) [15]: > 50 µg/mL | IC50 (µg/ml), pseudovirus neutralization [16]: 0.002 µg/mL | IC50 (µg/ml), pseudovirus neutralization [17]: 5.91 µg/mL | IC50 (µg/ml), pseudovirus neutralization [18]: > 50 µg/mL | IC50 (µg/ml), pseudovirus neutralization [19]: 0.02 µg/mL | IC50 (µg/ml), pseudovirus neutralization [20]: 0.03 µg/mL | IC50 (µg/ml), pseudovirus neutralization [21]: 2.42 µg/mL | IC50 (µg/ml), pseudovirus neutralization [22]: 0.7 µg/mL | IC50 (µg/ml), pseudovirus neutralization [23]: 0.04 µg/mL | IC50 (µg/ml), pseudovirus neutralization [24]: 0.13 µg/mL | IC50 (µg/ml), pseudovirus neutralization [25]: > 50 µg/mL | IC90 (pseudovirus neutralization) [26]: > 50 µg/mL | IC50 (µg/ml), pseudovirus neutralization [27]: > 50 µg/mL | IC50 (µg/ml), pseudovirus neutralization [28]: > 50 µg/mL | IC50 (µg/ml), pseudovirus neutralization [29]: 0.002 µg/mL | IC50 (µg/ml), pseudovirus neutralization [30]: > 50 µg/mL | IC50 (µg/ml), pseudovirus neutralization [31]: 0.31 µg/mL | IC50 (µg/ml), pseudovirus neutralization [32]: 0.15 µg/mL | IC50 (µg/ml), pseudovirus neutralization [33]: 0.01 µg/mL | IC50 (µg/ml), pseudovirus neutralization [34]: 3.74 µg/mL | IC50 (µg/ml), pseudovirus neutralization [35]: 0.002 µg/mL | IC50 (µg/ml), pseudovirus neutralization [36]: 3.09 µg/mL | IC50 (µg/ml), pseudovirus neutralization [37]: > 50 µg/mL

5114_A19 (PGT-128) (antibody)
IC50, pseudovirus neutralization [38]: 0.319 µg/mL | IC50, pseudovirus neutralization [39]: 0.004 µg/mL | IC50, pseudovirus neutralization [5]: > 50 µg/mL | IC50 [7]: > 50 µg/mL | IC50, pseudovirus neutralization [40]: 0.995 µg/mL | IC50 [8]: > 50 µg/mL | IC50, pseudovirus neutralization [41]: > 50 µg/mL | IC50 [18]: 0.007 µg/mL | IC50, pseudovirus neutralization [21]: > 50 µg/mL | IC50 [22]: 0.02 µg/mL | IC50 [24]: > 50 µg/mL | IC50, pseudovirus neutralization [25]: > 50 µg/mL | IC50, pseudovirus neutralization [42]: 8.21 µg/mL | IC50 [28]: 0.02 µg/mL | IC50, pseudovirus neutralization [30]: > 50 µg/mL | IC50 (µg/mL) neutralization [43]: 0.009 µg/mL | IC50, pseudovirus neutralization [32]: 0.019 µg/mL | IC50 [33]: 0.004 µg/mL | IC50 [34]: 0.026 µg/mL | IC50, pseudovirus neutralization [44]: 0.01 µg/mL | IC50, pseudovirus neutralization [45]: 0.313 µg/mL | IC50 [37]: 0.007 µg/mL | IC50, pseudovirus neutralization [46]: > 50 µg/mL

b12 (antibody)
IC50 (µg/ml), pseudovirus neutralization [1]: > 50 µg/mL | IC50 (µg/ml), pseudovirus neutralization [2]: > 50 µg/mL | IC50 (µg/ml), pseudovirus neutralization [3]: 10.4 µg/mL | IC90 (pseudovirus neutralization) [4]: > 50 µg/mL | IC50 (µg/ml), pseudovirus neutralization [5]: > 50 µg/mL | IC50 (µg/ml), pseudovirus neutralization [6]: > 50 µg/mL | IC50 (µg/ml), pseudovirus neutralization [7]: > 50 µg/mL | IC50 (µg/ml), pseudovirus neutralization [8]: 2.59 µg/mL | IC50 (µg/ml), pseudovirus neutralization [9]: 11.9 µg/mL | IC50 (µg/ml), pseudovirus neutralization [10]: 0.89 µg/mL | IC50 (µg/ml), pseudovirus neutralization [11]: > 50 µg/mL | IC50 (µg/ml), pseudovirus neutralization [12]: > 50 µg/mL | IC90 (pseudovirus neutralization) [13]: > 50 µg/mL | IC90 (pseudovirus neutralization) [14]: > 50 µg/mL | IC90 (pseudovirus neutralization) [15]: 0.28 µg/mL | IC50 (µg/ml), pseudovirus neutralization [16]: > 50 µg/mL | IC50 (µg/ml), pseudovirus neutralization [17]: > 50 µg/mL | IC50 (µg/ml), pseudovirus neutralization [18]: 6.16 µg/mL | IC50 (µg/ml), pseudovirus neutralization [19]: 0.63 µg/mL | IC50 (µg/ml), pseudovirus neutralization [20]: > 50 µg/mL | IC50 (µg/ml), pseudovirus neutralization [21]: > 50 µg/mL | IC50 (µg/ml), pseudovirus neutralization [22]: 0.66 µg/mL | IC50 (µg/ml), pseudovirus neutralization [23]: > 50 µg/mL | IC50 (µg/ml), pseudovirus neutralization [24]: > 50 µg/mL | IC50 (µg/ml), pseudovirus neutralization [25]: > 50 µg/mL | IC90 (pseudovirus neutralization) [26]: > 50 µg/mL | IC50 (µg/ml), pseudovirus neutralization [27]: > 50 µg/mL | IC50 (µg/ml), pseudovirus neutralization [28]: 2.11 µg/mL | IC50 (µg/ml), pseudovirus neutralization [29]: > 50 µg/mL | IC50 (µg/ml), pseudovirus neutralization [30]: > 50 µg/mL | IC50 (µg/ml), pseudovirus neutralization [31]: > 50 µg/mL | IC50 (µg/ml), pseudovirus neutralization [32]: > 50 µg/mL | IC50 (µg/ml), pseudovirus neutralization [33]: > 50 µg/mL | IC50 (µg/ml), pseudovirus neutralization [34]: > 50 µg/mL | IC50 (µg/ml), pseudovirus neutralization [35]: > 50 µg/mL | IC50 (µg/ml), pseudovirus neutralization [36]: > 50 µg/mL | IC50 (µg/ml), pseudovirus neutralization [37]: 0.02 µg/mL
